Measured values published in patent publication US20220313845A1 (MYTHIC THERAPEUTICS, published 2022).

T1: DLL3 on NCI-H82 cells (human, UniProt Q9NYJ7 27-618)
T1 construct: Endogenous DLL3 of NCI-H82 (DLL3+) cells; also called cell surface DLL3
T1 sequence: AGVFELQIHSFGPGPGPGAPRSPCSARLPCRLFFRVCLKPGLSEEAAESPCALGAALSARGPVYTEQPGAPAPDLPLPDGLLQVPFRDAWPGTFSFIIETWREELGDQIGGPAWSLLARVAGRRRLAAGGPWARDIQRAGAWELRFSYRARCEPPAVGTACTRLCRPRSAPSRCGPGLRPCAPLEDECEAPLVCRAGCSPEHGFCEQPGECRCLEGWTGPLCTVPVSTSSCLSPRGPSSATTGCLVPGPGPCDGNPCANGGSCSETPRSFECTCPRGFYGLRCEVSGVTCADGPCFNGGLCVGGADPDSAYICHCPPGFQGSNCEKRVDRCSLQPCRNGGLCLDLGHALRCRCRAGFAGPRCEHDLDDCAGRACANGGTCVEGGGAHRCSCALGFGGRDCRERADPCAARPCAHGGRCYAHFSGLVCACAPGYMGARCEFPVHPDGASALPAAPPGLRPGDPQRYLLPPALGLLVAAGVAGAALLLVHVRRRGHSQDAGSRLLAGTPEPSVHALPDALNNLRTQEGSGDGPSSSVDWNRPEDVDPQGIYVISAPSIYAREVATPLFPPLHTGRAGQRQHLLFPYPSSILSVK

T2: recombinant human DLL3 extracellular domain (R&D Systems, Cat #9749-DL) (human, UniProt Q9NYJ7 27-492)
T2 construct: Bought protein; also called soluble recombinant human DLL3 extracellular domain
T2 sequence: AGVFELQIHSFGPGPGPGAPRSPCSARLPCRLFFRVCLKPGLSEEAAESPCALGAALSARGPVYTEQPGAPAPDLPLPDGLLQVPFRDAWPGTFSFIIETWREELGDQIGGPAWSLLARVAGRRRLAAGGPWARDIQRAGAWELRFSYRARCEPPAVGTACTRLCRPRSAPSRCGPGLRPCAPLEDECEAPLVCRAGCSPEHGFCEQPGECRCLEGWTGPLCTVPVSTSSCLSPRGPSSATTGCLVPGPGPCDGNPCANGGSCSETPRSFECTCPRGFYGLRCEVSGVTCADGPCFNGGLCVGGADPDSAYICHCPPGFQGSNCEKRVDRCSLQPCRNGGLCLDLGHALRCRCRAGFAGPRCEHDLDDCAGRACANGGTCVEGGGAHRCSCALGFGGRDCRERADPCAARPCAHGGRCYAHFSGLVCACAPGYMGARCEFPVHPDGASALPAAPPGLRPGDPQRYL

B1: rovalpituzumab (antibody, V domains shown)
VH: QVQLVQSGAEVKKPGASVKVSCKASGYTFTNYGMNWVRQAPGQGLEWMGWINTYTGEPTYADDFKGRVTMTTDTSTSTAYMELRSLRSDDTAVYYCARIGDSSPSDYWGQGTLVTVSS
VL: EIVMTQSPATLSVSPGERATLSCKASQSVSNDVVWYQQKPGQAPRLLIYYASNRYTGIPARFSGSGSGTEFTLTISSLQSEDFAVYYCQQDYTSPWTFGQGTKLEIK
notes: IgG expressed in Expi293; the entries called heavy and light chain are variable domains; also called MYT0638
B2: SEQ ID NO 606 (other)
VH: EVQLVESGGGLVQPGGSLRLSCAASGFNISYYYIGWVRRAPGKGEELVARIYPTNGYTRYADSVKGRFTISADTSKNTAYLQMNSLRAEDTAVYYCARAYGDSDHYSEAIDYSGQGTLVTVSS
notes: also called Humanized VH variant #1
B3: SEQ ID NO 613 (other)
VH: EVQLVESGGGLVQPGGSLRLSCAASGFNIEYESIGWVRRAPGKGEELVARIYPTNGYTRYADSVKGRFTISADTSKNTAYLQMNSLRAEDTAVYYCARSEYSHYSGSHHYYALDYSGQGTLVTVSS
notes: also called Humanized VH variant #8
B4: SEQ ID NO 607 (other)
VH: EVQLVESGGGLVQPGGSLRLSCAASGFNIYSESIGWVRRAPGKGEELVARIYPTNGYTRYADSVKGRFTISADTSKNTAYLQMNSLRAEDTAVYYCARSYYSHYDGHYHYYGLDYSGQGTLVTVSS
notes: also called Humanized VH variant #2
B5: SEQ ID NO 609 (other)
VH: EVQLVESGGGLVQPGGSLRLSCAASGFNIYSYSIGWVRRAPGKGEELVARIYPTNGYTRYADSVKGRFTISADTSKNTAYLQMNSLRAEDTAVYYCAREHYHGYYDGAHYYALDYSGQGTLVTVSS
notes: also called Humanized VH variant #4
B6: SEQ ID NO 610 (other)
VH: EVQLVESGGGLVQPGGSLRLSCAASGFNIEYYSIGWVRRAPGKGEELVARIYPTNGYTRYADSVKGRFTISADTSKNTAYLQMNSLRAEDTAVYYCAREYYSYHDEYEYDYALDYSGQGTLVTVSS
notes: also called Humanized VH variant #5
B7: SEQ ID NO 611 (other)
VH: EVQLVESGGGLVQPGGSLRLSCAASGFNIEHYSIGWVRRAPGKGEELVARIYPTNGYTRYADSVKGRFTISADTSKNTAYLQMNSLRAEDTAVYYCARHHYYGYHSGYHHYAIDYSGQGTLVTVSS
notes: also called Humanized VH variant #6
B8: SEQ ID NO 614 (other)
VH: EVQLVESGGGLVQPGGSLRLSCAASGFNISEHSIGWVRRAPGKGEELVARIYPTNGYTRYADSVKGRFTISADTSKNTAYLQMNSLRAEDTAVYYCARSYYHGYSHGHHYYAIDYSGQGTLVTVSS
notes: also called Humanized VH variant #9
B9: SEQ ID NO 618 (other)
VH: EVQLVESGGGLVQPGGSLRLSCAASGFNISEESIGWVRRAPGKGEELVARIYPTNGYTRYADSVKGRFTISADTSKNTAYLQMNSLRAEDTAVYYCARSYYAHYSAGYYYYALDYSGQGTLVTVSS
notes: also called Humanized VH variant #13
B10: SEQ ID NO 619 (other)
VH: EVQLVESGGGLVQPGGSLRLSCAASGFNISHYSIGWVRHAPGKGEELVARIYPTNGYTRYADSVKGRFTISADTSKNTAYLQMNSLRAEDTAVYYCARHHYSHYDGHSHYYGLDYSGQGTLVTVSS
notes: also called Humanized VH variant #14
B11: SEQ ID NO 620 (other)
VH: EVQLVESGGGLVQPGGSLRLSCAASGFNIYDHSIGWVRRAPGKGEELVARIYPTNGYTRYADSVKGRFTISADTSKNTAYLQMNSLRAEDTAVYYCARSSYSGYYGSHHYYALDYSGQGTLVTVSS
notes: also called Humanized VH variant #15
B12: SEQ ID NO 608 (other)
VH: EVQLVESGGGLVQPGGSLRLSCAASGFNISYYSIGWVRRAPGKGEELVARIYPTNGYTRYADSVKGRFTISADTSKNTAYLQMNSLRAEDTAVYYCARYHHSEYSDYYGYYSEYGFDYSGQGTLVTVRS
notes: also called Humanized VH variant #3
B13: SEQ ID NO 612 (other)
VH: EVQLVESGGGLVQPGGSLRLSCAASGFNISSSDIGWVRRAPGKGEELVARIYPTNGYTRYADSVKGRFTISADTSKNTAYLQMNSLRAEDTAVYYCARYYYYDDDGYYYEHAIDYSGQGTLVTVSS
notes: also called Humanized VH variant #7
B14: SEQ ID NO 615 (other)
VH: EVQLVESGGGLVQPGGSLRLSCAASGFNIHSYYIGWVRRAPGKGEELVARIYPTNGYTRYADSVKGRFTISADTSKNTAYLQMNSLRAEDTAVYYCARGYYGHEYDYHYDYYGGGFDYSGQGTLVTVSS
notes: also called Humanized VH variant #10
B15: SEQ ID NO 616 (other)
VH: EVQLVESGGGLVQPGGSLRLSCAASGFNIHYEEIGWVRRAPGKGEELVARIYPTNGYTRYADSVKGRFTISADTSKNTAYLQMNSLRAEDTAVYYCARYSYYYHYGGGMDYSGQGTLVTVSS
notes: also called Humanized VH variant #11

Assays:
DLL3 on NCI-H82 cells = molecular target: T1, DLL3 on NCI-H82 cells; experiment: flow cytometry titration on NCI-H82 cells, Alexa Fluor 488 anti-human IgG; Example 37 calls the fitted value a dissociation constant KD
Protocol: FIGS. 20a-c: Characterization of binding affinity for anti-DLL3 mAbs. Anti-DLL3 mAbs were assayed for their binding to NCI-H82 cells.
Binding affinity of selected anti-DLL3 pH engineered antibody variants from Examples 9-13 were measured on NCI-H82 cells. 100,000 cells per well were resuspended in 900 μL FC buffer in a 96 well deep well plate. Rovalpituzumab and pH engineered antibody variants were serially diluted at a 1:3 dilution. 100 μL of diluted antibody was added to each well with final concentration ranging from […] and incubated for 2 hours at 4° C. Post incubation, the cells were spun at 2000 rpm for 2 min and supernatant was discarded. Cells were washed twice with 500 μL of ice-cold FC buffer and resuspended with 100 μL of FC buffer. The cells were then transferred from the deep well plate to 96 well round bottom plate, spun at 2000 rpm for 2 min and incubated with 100 μL of 10 μg/mL Alexa Fluor 488 conjugated goat anti-human IgG secondary antibody (ThermoFisher Scientific, A11013) for 30 min. Post incubation, cells were washed with FC buffer and resuspended in 100 μL of FC buffer to read on a BD Accuri C6 flow cytometer. Binding affinity was measured as a dissociation constant KD by GraphPad Prism assuming Michaelis-Menten binding kinetics. […]

[1] = molecular target: T2, recombinant human DLL3 extracellular …; experiment: phage ELISA after three rounds of panning on biotinylated recombinant human DLL3
Source text: Multiple ABPC display systems, including phage display systems and those with ABPCs based on VH domains, have been described in the literature and can be used as a template for selection of pH engineered ABPCs using panning (Scroter C (2015) “A generic approach to engineer antibody pH switches using combinatorial histidine scanning libraries and yeast display” mAbs, 7:1, 138-151; Bonvin P (2015) “De novo isolation of antibodies with pH-dependent binding properties” mAbs, 7:2, 294-302; Traxlmayr P (2014) “Construction of pH-sensitive Her2-binding IgG1-Fc by directed evolution” Biotechnology Journal 9(8): 1013-1022; Gera N (2012) “Design of pH sensitive binding proteins from the hyperthermophilic Sso7 d scaffold” PLOS ONE 7 (11) e48928). pH engineered anti-DLL3 variants were selected by screening a proprietary humanized VH domain phage display library. Humanized VH library was screened against soluble recombinant human DLL3 extracellular domain (R&D Systems, Cat #9749-DL) in three rounds of selections with successively lower concentrations to isolate pH dependent anti-DLL3 VH domains. Briefly, the library was depleted for non-specific binders by incubating with Dynal M-280 streptavidin beads, bound antibodies were separated via a magnet and supernatant was collected for positive selection with human DLL3. Depleted library was further incubated with biotinylated recombinant human DLL3 at pH 7.4 for 1-3 hours at room temperature. Dynal streptavidin beads were added to the mixture to capture human DLL3 bound antibodies and washed 3× with a pH 7.4 buffer. Bound antibodies were eluted from beads using 0.1 M glycine pH 2.7 which was then neutralized with 1M Tris pH 7.4.

| Binder | KD (DLL3 on NCI-H82 cells) | binding result [1] |
| --- | --- | --- |
| B1 | 8 pM | – |
| B2 | – | binds |
| B3 | – | binds |
| B4 | – | binds |
| B5 | – | binds |
| B6 | – | binds |
| B7 | – | binds |
| B8 | – | binds |
| B9 | – | binds |
| B10 | – | binds |
| B11 | – | binds |
| B12 | – | binds |
| B13 | – | binds |
| B14 | – | binds |
| B15 | – | binds |
